Laboratory results published in patent publication US20240174727A1, “LONG-ACTING NATRIURETIC PEPTIDES AND USES THEREOF” (Eli Lilly and Company, priority 2022, published 2024).
Numbering of substitutions follows the chain as printed. Numbered stars: 1 amine (or outer) side, 2 acyl side, 3 side chain; on linkers, the order of the positions; unused ones are H or OH. Bridge positions count the residues as written; N and C are the ends. Square brackets hold non-standard residues; d marks the D form. * marks the point of attachment. thioacetal = thioacetal linkage between two cysteines (intrachain bond at the bracketed Cys); C20 diacid = O=C(O)CCCCCCCCCCCCCCCCCCC(=O)*; C16 diacid = O=C(O)CCCCCCCCCCCCCCC(=O)*; γGlu = O=C(O)[C@H](CCC(=O)[*:2])N[*:1]; 4Pal = N[C@@H](Cc1ccncc1)C(=O)O; Aib = CC(C)(N)C(=O)O; βAla = NCCC(=O)O

B1: Example 51 (peptide)
peptide: {C20 diacid}-[γGlu]EKEKEKGEKGRSSCFGGRIDRIGHYSGLGCPSLRHGGPSSGAPPPS-NH2
modifications: disulfide 15-31
B2: Example 70 (peptide)
peptide: {C20 diacid}-[γGlu]EKEKEKGEK[βAla]RSSCFGGRIDRIGHYSGLGCPSFRHGGPSSGAPPPS-NH2
modifications: bridge 15-31 via thioacetal
B3: Example 60 (peptide)
peptide: {C20 diacid}-[γGlu]EKEKEKGEK[βAla]RSSCFGGRIDRIGHYSGLGCPSFRHGPSSGAPPPS-NH2
modifications: bridge 15-31 via thioacetal
B4: Example 58 (peptide)
peptide: {C20 diacid}-[γGlu]EKEKEKGKE[βAla]RSSCFGGRIDRIGHYSGLGCPSFRHGGPSSGAPPPS-NH2
modifications: bridge 15-31 via thioacetal
B5: Example 67 (peptide)
peptide: {C20 diacid}-[γGlu]EKEKEKGS[4Pal]RRSSCFGGRIDRIGHQSGLGCPSFRHGGKSSGAPPPS-NH2
modifications: bridge 15-31 via thioacetal
B6: Example 72 (peptide)
peptide: {C20 diacid}-[γGlu]EKEKEKGS[4Pal]RRSSCFGGRIDRIGHQSGLGCPSFRHGGKSSGAPPPS-NH2
modifications: bridge 15-31 via thioacetal
B7: Example 54 (peptide)
peptide: {C20 diacid}-[γGlu]EKEKEKGEK[βAla]RSSCFGGRIDRIGHYSGLGCPSFRHGGPSSGAPPPS-NH2
modifications: disulfide 15-31
B8: Example 63 (peptide)
peptide: {C20 diacid}-[γGlu]EKEKEKGEK[βAla]RSSCFGGRIDRIGHYSGLGCPSLRHGGPSSGAPPPS-NH2
modifications: bridge 15-31 via thioacetal
B9: Example 1 (peptide)
peptide: XEKEKEKGSXRRSSCFGGRIDRIGHQSGLGCPSFRHGGPSSGAPPPS
modifications: HOOC-(CH2)18-CO-(γGlu)-EKEKEKGS-4Pal-RRSS[CFGGRIDRIGHQSGLGC]PSFRHGGPSSGAPPPS-NH2; disulfide linkage between the bracketed Cys
B10: Example 2 (peptide)
peptide: B9 peptide
modifications: HOOC-(CH2)18-CO-(γGlu)-EKEKEKGS-4Pal-RRSS[CFGGRIDRIGHQSGLGC]PSFRHGGPSSGAPPPS-NH2; thioacetal linkage between the bracketed Cys
B11: Example 69 (peptide)
peptide: B9 peptide
modifications: not fully specified; HOOC-(CH2)18-CO-(γGlu)-EKEKEKGS-4Pal-RRSS[CFGGRIDRIGHQSGLGC]PSFRHGGPSSGAPPPS-NH2; thioacetal linkage between the bracketed Cys
B12: Example 65 (peptide)
peptide: B9 peptide with X10K, R11X, Q26Y
modifications: HOOC-(CH2)18-CO-(γGlu)-EKEKEKGSK-βAla-RSS[CFGGRIDRIGHYSGLGC]PSFRHGGPSSGAPPPS-NH2; thioacetal linkage between the bracketed Cys
B13: Example 3 (peptide)
peptide: EKXRSSCFGKRIDRIGHQSGLGCPSFRHGGKSSGAPPPS
modifications: HOOC-(CH2)18-CO-(γGlu)-EKEKEKG-PEG24-EK-βAla-RSS[CFGKRIDRIGHQSGLGC]PSFRHGGKSSGAPPPS-NH2; thioacetal linkage between the bracketed Cys
B14: Example 4 (peptide)
peptide: B13 peptide with G30S, K31P
modifications: HOOC-(CH2)18-CO-(γGlu)-EKEKEKG-PEG24-EK-βAla-RSS[CFGKRIDRIGHQSGLGC]PSFRHGSPSSGAPPPS-NH2; thioacetal linkage between the bracketed Cys
B15: Example 68 (peptide)
peptide: {C20 diacid}-[γGlu]EKEKEKGS[4Pal]RRSSCFGGRIDRIGHQSGLGCPSFRHGGPPS[Aib]KPPPK-NH2
modifications: bridge 15-31 via thioacetal
B16: Example 73 (peptide)
peptide: {C16 diacid}-[γGlu]EKEKEKGEK[βAla]RSSCFGGRIDRIGHYSGLGCPSFRHGGKSSGAPPPS-NH2
modifications: bridge 15-31 via thioacetal
B17: Example 56 (peptide)
peptide: {C20 diacid}-[γGlu]EKEKEKGEK[βAla]RSSCFGGRIDRIGHYSGLGCPSFRHGGPSSGAPPPS-NH2
modifications: bridge 15-31 via thioacetal
B18: Example 61 (peptide)
peptide: SXRRSSCFGGRIDRIGHQSGLGCPSFRHGGPSSGAPPPS
modifications: HOOC-(CH2)18-CO-(γGlu)-EKEKEKG-PEG24-S-4Pal-RRSS[CFGGRIDRIGHQSGLGC]PSFRHGGPSSGAPPPS-NH2; thioacetal linkage between the bracketed Cys
B19: Example 39 (peptide)
peptide: {C20 diacid}-[γGlu]EKEKEKGS[4Pal]RRSSCFGGRIDRIGHQSGLGCPSFRHSGAPPPSE-NH2
modifications: disulfide 15-31
B20: Example 71 (peptide)
peptide: {C20 diacid}-[γGlu]EKEKEKGS[4Pal]RRSSCFGGRIDRIGHQSGLGCPSFRHGGPPS[Aib]KPPPK-NH2
modifications: bridge 15-31 via thioacetal
B21: Example 74 (peptide)
peptide: {C20 diacid}-[γGlu]EKEKEKGEK[βAla]RSSCFGGRIDRIGHYSGLGCPSFRHGGKSSGAPPPS-NH2
modifications: bridge 15-31 via thioacetal

Columns and labels:
human NPRA = target: T1, human NPRA (human, UniProt P16066 33-1061); test: cell-based or functional assay
T1 sequence (looked up): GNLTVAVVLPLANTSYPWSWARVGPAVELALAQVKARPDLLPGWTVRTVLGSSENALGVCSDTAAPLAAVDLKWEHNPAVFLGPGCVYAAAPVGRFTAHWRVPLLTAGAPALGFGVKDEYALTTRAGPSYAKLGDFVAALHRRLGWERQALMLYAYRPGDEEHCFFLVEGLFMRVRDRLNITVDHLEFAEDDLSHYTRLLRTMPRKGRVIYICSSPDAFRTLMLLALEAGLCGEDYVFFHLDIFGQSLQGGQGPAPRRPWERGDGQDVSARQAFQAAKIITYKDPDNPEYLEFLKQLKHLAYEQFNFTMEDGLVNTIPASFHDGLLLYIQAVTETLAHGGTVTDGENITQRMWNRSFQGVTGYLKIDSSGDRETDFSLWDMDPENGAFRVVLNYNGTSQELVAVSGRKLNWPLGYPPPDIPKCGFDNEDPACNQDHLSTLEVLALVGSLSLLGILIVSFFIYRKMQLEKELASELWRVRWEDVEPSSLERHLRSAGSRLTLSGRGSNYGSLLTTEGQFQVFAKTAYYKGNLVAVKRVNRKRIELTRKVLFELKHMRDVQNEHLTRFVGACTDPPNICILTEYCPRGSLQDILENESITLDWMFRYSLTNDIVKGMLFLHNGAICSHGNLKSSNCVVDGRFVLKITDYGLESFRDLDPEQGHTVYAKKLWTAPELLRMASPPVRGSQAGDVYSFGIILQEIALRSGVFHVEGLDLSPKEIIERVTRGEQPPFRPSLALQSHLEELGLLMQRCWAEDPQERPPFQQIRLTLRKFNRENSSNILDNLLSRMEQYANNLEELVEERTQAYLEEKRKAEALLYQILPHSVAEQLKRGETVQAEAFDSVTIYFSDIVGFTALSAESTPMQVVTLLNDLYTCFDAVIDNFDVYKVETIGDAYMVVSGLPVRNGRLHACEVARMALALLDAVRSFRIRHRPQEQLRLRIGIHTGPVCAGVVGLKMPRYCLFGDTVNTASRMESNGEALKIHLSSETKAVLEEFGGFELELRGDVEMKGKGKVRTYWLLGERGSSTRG

rat NPRA = target: T2, rat NPRA (rat, UniProt P18910 29-1057); test: cell-based or functional assay
T2 sequence (looked up): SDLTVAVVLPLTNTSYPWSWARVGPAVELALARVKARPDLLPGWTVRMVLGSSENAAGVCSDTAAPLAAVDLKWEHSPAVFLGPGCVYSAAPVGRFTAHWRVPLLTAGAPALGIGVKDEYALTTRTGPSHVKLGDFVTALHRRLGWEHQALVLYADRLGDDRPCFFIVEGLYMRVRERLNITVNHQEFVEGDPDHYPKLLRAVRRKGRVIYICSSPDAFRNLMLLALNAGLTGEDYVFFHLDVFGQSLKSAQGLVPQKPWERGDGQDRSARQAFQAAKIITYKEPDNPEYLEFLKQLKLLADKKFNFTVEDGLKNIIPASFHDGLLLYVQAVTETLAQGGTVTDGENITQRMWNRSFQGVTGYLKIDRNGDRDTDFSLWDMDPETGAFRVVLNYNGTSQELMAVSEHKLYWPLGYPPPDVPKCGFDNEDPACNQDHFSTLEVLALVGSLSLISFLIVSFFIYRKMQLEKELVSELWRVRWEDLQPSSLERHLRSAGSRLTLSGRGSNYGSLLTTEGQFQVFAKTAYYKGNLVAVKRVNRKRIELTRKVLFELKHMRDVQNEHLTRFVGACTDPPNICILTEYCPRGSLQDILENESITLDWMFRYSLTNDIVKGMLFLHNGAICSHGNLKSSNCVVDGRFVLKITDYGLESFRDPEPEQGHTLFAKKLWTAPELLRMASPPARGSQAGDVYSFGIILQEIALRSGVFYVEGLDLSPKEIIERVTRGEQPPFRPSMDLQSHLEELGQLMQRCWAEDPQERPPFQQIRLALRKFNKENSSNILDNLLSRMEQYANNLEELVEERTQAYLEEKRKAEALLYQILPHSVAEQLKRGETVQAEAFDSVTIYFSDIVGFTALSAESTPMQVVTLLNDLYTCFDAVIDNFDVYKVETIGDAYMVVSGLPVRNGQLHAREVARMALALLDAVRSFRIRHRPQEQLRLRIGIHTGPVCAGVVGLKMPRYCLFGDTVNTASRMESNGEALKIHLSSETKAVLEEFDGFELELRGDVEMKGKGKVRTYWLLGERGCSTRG

Binder | cGMP Assay (EC50, pM) w/BSA (human NPRA) [pM] | cGMP Assay (EC50, pM) w/Casein (human NPRA) [pM] | cGMP Assay (EC50, pM) w/BSA (rat NPRA) [pM] | cGMP Assay (EC50, pM) w/Casein (rat NPRA) [pM]
B1 | 11100 | 361 | 82700 | 909
B2 | 92500 | 1840 | 712000 | 11800
B3 | 81700 | 453 | 962000 | 4830
B4 | 104000 | 1220 | 1.38e+06 | 7150
B5 | 139000 | 1220 | 1.55e+06 | 18800
B6 | 46400 | 588 | 1.07e+06 | 40500
B7 | 19300 | 369 | 77200 | 796
B8 | 63800 | 1090 | 785000 | 10600
B9 | 11600 | 335 | 81900 | 1810
B10 | 93400 | 1020 | 1.27e+06 | 14100
B11 | 61400 | – | 804000 | –
B12 | – | 614 | – | 7420
B13 | 6920 | 980 | 959000 | 36600
B14 | 6180 | 813 | 519000 | 22500
B15 | – | 924 | 1.28e+06 | 12100
B16 | 5820 | 1230 | 76400 | 26000
B17 | 145000 | 855 | 1.38e+06 | 11200
B18 | 9000 | 912 | 463000 | 32000
B19 | 9970 | 276 | 93300 | 439
B20 | – | 594 | 594000 | 21000
B21 | 171000 | 1590 | 1.13e+06 | 5820
